{"source": "patent US20030036181A1", "biological_target": "macrophage mannose receptor on J774E murine monocyte/macrophage cells (murine) (UniProt Q61830)", "assay": "cell-based or functional assay", "data": [{"substance": "Cerezyme (from UniProt P04062 40-536) (enzyme)", "values": [{"measurement": "Vmax for uptake in the J774E macrophage cell line", "result": 0.52}]}]}
